Literature values, collected in publication PMC12990809.

Legend:
Assay in all cases: pulldown
Settings in all cases: 20 nM protein, 1.5 uM RNA pool; 20 mM HEPES pH 7.8, 70 mM KCl, 10 mM NaCl, 10% glycerol, 2 mM DTT, 0.1 ug/uL BSA; 30 min, 4 C (protocol of this paper; not …); cited from earlier work
[1] = target: T1, CG7804 (Drosophila melanogaster) (UniProt Q7JW23)
T1 sequence: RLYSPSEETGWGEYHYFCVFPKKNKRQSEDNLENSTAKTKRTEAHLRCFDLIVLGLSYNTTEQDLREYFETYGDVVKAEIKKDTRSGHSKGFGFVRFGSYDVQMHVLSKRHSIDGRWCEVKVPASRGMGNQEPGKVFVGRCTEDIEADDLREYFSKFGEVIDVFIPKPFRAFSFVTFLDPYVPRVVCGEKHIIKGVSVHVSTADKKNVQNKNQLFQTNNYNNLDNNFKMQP

[2] = target: T2, PABPN1 (Homo sapiens) (UniProt Q86U42)
T2 sequence: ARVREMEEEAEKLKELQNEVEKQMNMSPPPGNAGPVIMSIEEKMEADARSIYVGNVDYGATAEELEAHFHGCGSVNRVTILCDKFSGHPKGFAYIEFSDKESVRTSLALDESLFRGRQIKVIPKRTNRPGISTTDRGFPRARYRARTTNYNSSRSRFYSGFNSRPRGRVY

[3] = target: T3, RBM42 (Homo sapiens) (UniProt Q9BTD8)
T3 sequence: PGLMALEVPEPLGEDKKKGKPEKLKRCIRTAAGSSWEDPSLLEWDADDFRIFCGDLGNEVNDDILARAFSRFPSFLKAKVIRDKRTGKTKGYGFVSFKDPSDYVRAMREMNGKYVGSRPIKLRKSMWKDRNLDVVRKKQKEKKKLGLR

[4] = target: T4, ESRP2 (Homo sapiens) (UniProt Q9H6T0)
T4 sequence: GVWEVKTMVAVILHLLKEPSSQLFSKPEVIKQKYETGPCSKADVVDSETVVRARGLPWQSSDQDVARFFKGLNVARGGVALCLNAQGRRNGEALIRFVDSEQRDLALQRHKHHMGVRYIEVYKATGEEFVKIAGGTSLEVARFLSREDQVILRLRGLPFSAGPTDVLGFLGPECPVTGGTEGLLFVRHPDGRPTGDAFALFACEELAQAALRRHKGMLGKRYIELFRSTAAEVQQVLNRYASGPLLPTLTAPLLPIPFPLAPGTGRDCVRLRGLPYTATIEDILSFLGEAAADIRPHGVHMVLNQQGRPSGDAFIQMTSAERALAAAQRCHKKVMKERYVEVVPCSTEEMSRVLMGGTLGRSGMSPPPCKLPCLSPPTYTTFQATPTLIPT

[5] = target: T5, CNOT4 (Homo sapiens) (UniProt O95628)
T5 sequence: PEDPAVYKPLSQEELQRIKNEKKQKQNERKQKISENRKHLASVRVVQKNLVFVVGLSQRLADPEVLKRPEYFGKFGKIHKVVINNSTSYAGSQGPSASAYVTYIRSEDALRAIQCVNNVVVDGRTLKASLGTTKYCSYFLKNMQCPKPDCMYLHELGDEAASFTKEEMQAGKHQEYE

[6] = target: T6, CPEB2 (Homo sapiens) (UniProt Q7Z5Q1)
T6 sequence: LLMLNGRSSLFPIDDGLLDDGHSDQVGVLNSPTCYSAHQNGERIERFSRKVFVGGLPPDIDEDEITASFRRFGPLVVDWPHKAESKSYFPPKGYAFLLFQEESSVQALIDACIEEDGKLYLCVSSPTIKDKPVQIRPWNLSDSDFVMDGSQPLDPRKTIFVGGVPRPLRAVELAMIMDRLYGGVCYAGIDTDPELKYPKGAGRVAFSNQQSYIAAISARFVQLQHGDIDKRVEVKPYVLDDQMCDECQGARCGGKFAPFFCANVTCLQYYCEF

[7] = target: T7, B52 (Drosophila melanogaster) (UniProt P26686)
T7 sequence: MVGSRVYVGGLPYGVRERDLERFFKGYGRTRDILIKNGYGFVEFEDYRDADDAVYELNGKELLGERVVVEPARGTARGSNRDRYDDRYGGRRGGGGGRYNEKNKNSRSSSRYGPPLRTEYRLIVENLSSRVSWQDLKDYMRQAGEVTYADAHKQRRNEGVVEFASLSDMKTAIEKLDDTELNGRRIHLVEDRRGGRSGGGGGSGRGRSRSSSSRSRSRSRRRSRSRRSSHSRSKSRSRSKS

[8] = target: T8, CG5213 (Drosophila melanogaster) (UniProt Q7JY27)
T8 sequence: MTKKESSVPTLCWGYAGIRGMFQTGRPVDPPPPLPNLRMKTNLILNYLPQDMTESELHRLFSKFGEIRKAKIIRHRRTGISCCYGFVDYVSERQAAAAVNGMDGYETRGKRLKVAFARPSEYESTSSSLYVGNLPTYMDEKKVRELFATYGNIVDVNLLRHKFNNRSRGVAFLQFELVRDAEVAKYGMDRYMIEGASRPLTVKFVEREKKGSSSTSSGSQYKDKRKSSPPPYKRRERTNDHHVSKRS

[9] = target: T9, RBMS1 (Homo sapiens) (UniProt P29558)
T9 sequence: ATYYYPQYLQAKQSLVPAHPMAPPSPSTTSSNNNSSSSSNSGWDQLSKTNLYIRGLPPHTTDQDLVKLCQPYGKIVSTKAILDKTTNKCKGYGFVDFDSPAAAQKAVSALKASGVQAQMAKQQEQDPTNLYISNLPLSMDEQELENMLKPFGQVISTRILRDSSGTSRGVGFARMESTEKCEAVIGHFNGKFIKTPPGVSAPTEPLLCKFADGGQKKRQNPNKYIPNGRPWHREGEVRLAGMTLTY

[10] = target: T10, snf (Drosophila melanogaster) (UniProt P43332)
T10 sequence: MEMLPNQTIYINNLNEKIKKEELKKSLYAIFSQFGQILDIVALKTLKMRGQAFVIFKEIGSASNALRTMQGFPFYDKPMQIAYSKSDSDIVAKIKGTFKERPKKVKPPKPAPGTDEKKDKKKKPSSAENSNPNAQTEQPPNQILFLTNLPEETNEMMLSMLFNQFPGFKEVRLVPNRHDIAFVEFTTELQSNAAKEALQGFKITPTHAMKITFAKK

[11] = target: T11, rin (Drosophila melanogaster) (UniProt A0ACM8PZ16)
T11 sequence: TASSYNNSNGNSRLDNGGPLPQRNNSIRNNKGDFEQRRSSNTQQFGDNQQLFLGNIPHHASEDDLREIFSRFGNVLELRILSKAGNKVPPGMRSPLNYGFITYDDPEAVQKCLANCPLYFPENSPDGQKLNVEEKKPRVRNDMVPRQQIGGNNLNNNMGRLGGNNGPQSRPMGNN

[12] = target: T12, CG2931 (Drosophila melanogaster) (UniProt Q7JZA8)
T12 sequence: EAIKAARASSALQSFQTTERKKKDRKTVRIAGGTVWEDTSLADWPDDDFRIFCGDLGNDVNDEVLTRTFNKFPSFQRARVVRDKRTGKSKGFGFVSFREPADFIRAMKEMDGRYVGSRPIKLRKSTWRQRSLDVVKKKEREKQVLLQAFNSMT

[13] = target: pAbp (Drosophila melanogaster) (UniProt P21187)
Sequence of pAbp (Drosophila melanogaster) (P21187 1-408): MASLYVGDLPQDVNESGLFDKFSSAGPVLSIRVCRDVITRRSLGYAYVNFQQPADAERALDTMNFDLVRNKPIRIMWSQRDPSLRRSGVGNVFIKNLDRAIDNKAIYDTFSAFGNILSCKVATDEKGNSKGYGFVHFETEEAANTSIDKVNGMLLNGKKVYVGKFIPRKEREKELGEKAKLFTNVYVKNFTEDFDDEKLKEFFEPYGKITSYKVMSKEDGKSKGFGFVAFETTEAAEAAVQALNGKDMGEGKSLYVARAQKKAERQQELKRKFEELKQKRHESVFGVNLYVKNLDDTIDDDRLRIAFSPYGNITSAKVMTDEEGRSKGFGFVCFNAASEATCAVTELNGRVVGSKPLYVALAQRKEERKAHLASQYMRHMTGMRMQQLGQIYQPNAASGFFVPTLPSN

[14] = target: FXR1 (Homo sapiens) (UniProt P51114)
Sequence of FXR1 (Homo sapiens) (P51114 170-401): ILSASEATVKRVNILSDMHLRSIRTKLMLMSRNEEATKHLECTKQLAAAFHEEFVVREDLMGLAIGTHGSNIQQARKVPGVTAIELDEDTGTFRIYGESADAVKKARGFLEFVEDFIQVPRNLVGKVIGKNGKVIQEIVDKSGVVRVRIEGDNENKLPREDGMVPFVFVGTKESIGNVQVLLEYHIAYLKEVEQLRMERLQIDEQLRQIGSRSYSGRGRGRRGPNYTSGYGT

[15] = target: T13, HNRNPH2 (Homo sapiens) (UniProt P55795)
T13 sequence: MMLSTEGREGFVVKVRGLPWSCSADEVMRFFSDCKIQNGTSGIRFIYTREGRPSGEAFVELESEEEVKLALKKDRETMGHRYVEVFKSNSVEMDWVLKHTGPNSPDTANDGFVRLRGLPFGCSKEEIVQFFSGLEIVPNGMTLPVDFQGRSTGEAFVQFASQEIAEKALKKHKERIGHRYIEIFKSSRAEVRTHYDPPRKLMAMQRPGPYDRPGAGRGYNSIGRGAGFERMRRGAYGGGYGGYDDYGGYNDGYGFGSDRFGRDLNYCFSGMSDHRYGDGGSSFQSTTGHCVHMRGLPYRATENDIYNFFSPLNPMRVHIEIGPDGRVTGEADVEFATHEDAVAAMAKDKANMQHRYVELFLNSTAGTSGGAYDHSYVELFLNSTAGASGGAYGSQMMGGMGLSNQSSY

[16] = target: T14, qkr58E-1 (Drosophila melanogaster) (UniProt Q7JVR3)
T14 sequence: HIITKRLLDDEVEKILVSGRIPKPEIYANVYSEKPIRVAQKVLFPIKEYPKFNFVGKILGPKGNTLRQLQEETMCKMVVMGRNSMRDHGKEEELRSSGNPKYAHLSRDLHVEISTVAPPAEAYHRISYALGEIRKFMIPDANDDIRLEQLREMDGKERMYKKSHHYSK

[17] = target: mub (Drosophila melanogaster) (UniProt M9NGB9)
Sequence of mub (Drosophila melanogaster) (M9NGB9 entry or part of it): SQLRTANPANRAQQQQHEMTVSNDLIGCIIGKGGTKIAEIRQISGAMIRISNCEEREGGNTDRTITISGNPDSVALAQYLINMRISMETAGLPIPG

[18] = target: T15, A1CF (Homo sapiens) (UniProt Q9NQ94)
T15 sequence: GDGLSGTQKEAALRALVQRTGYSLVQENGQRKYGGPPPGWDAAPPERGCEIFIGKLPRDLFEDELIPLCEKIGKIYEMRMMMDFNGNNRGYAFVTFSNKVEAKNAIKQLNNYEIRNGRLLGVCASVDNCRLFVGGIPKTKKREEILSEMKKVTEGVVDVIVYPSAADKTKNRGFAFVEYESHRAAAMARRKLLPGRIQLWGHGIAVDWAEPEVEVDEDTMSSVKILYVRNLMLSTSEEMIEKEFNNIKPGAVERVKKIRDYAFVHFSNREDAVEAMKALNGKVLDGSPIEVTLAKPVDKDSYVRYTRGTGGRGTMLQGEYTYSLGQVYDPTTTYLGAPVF

[19] = target: T16, papi (Drosophila melanogaster) (UniProt Q9VQ91)
T16 sequence: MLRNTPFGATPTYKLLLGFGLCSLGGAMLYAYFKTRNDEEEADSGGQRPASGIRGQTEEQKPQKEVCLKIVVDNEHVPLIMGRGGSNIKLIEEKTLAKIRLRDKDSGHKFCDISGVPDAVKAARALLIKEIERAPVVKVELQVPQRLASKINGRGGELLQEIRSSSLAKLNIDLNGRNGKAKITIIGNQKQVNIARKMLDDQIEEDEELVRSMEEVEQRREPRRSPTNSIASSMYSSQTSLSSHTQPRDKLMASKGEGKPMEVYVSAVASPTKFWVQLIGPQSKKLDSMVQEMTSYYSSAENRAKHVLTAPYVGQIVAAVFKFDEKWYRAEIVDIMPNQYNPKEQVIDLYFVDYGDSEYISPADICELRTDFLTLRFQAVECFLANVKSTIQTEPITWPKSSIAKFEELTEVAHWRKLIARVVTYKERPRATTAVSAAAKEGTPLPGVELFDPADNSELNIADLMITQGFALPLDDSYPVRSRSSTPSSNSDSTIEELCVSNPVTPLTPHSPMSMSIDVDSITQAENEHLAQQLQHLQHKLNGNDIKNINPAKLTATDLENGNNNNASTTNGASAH

[20] = target: PABPC3 (Homo sapiens) (UniProt Q9H361)
Sequence of PABPC3 (Homo sapiens) (Q9H361 1-414): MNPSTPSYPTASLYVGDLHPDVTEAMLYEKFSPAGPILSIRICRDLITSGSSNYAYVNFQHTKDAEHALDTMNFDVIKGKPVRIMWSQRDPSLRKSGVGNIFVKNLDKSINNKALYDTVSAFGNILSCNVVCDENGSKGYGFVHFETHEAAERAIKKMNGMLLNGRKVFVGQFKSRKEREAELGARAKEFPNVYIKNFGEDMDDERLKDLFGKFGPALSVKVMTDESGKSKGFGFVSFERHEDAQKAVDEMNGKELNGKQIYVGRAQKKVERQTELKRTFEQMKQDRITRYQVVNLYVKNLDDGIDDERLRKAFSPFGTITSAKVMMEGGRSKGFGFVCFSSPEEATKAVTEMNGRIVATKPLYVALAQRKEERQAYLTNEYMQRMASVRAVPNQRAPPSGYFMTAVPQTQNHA

[21] = target: T17, CPEB4 (Homo sapiens) (UniProt Q17RY0)
T17 sequence: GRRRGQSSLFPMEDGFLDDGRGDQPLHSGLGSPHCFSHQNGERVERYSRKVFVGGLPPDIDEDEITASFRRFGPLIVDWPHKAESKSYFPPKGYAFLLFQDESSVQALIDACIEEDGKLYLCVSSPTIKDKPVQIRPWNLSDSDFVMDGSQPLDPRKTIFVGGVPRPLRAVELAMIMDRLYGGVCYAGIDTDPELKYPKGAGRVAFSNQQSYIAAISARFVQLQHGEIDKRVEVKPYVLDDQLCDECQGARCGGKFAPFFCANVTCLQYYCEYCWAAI

[22] = target: RALY (Homo sapiens) (UniProt Q9UKM9)
Sequence of RALY (Homo sapiens) (Q9UKM9 1-136): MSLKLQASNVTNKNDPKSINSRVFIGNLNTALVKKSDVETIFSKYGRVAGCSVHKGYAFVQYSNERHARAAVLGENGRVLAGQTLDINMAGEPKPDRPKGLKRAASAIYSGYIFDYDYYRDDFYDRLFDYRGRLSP

[23] = target: PABPC1 (Homo sapiens) (UniProt P11940)
Sequence of PABPC1 (Homo sapiens) (P11940 1-414): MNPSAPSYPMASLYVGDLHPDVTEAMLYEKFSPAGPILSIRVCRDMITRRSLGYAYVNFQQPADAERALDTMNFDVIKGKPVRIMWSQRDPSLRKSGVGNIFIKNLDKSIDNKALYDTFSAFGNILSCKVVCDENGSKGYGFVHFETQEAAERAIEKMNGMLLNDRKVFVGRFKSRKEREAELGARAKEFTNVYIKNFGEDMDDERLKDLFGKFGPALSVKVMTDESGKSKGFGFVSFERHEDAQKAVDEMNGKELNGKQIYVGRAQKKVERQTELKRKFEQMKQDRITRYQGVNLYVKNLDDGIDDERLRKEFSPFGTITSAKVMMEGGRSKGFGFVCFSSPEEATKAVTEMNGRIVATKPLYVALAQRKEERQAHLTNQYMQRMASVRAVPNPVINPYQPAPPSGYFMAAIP

GNGUG [RNAcompete motif RNCMPT00146]
binding signal (z-score (mean of top ten 7-mers)) [1]: 8.15

AGAAGA [RNAcompete motif RNCMPT00157]
binding signal (z-score (mean of top ten 7-mers)) [2]: 11.4

AACUANG [RNAcompete motif RNCMPT00151]
binding signal (z-score (mean of top ten 7-mers)) [3]: 11.2

AUGGGGA [RNAcompete motif RNCMPT00150]
binding signal (z-score (mean of top ten 7-mers)) [4]: 7.36

GACAGA [RNAcompete motif RNCMPT00156]
binding signal (z-score (mean of top ten 7-mers)) [5]: 19

CCUUUUU [RNAcompete motif RNCMPT00012]
binding signal (z-score (mean of top ten 7-mers)) [6]: 10.8

GGAGGGG [RNAcompete motif RNCMPT00134]
binding signal (z-score (mean of top ten 7-mers)) [7]: 7.73

UACUUU [RNAcompete motif RNCMPT00010]
binding signal (z-score (mean of top ten 7-mers)) [8]: 11.8

AUAUAG [RNAcompete motif RNCMPT00152]
binding signal (z-score (mean of top ten 7-mers)) [9]: 7.69

UUGCACA [RNAcompete motif RNCMPT00145]
binding signal (z-score (mean of top ten 7-mers)) [10]: 14

GGGUGGG [RNAcompete motif RNCMPT00138]
binding signal (z-score (mean of top ten 7-mers)) [11]: 9.16

ACUAAG [RNAcompete motif RNCMPT00147]
binding signal (z-score (mean of top ten 7-mers)) [12]: 11.6

GAAAA [RNAcompete motif RNCMPT00139]
binding signal (z-score (mean of top ten 7-mers)) [13]: 13

AAUGACAA [RNAcompete motif RNCMPT00161]
binding signal (z-score (mean of top ten 7-mers)) [14]: 6.01

GGGAGGG [RNAcompete motif RNCMPT00160]
binding signal (z-score (mean of top ten 7-mers)) [15]: 16.8

ANAAUAA [RNAcompete motif RNCMPT00142]
binding signal (z-score (mean of top ten 7-mers)) [16]: 6.18

AACCCU [RNAcompete motif RNCMPT00137]
binding signal (z-score (mean of top ten 7-mers)) [17]: 10.1

UAAUUG [RNAcompete motif RNCMPT00001]
binding signal (z-score (mean of top ten 7-mers)) [18]: 12.6

UNUGUGU [RNAcompete motif RNCMPT00011]
binding signal (z-score (mean of top ten 7-mers)) [19]: 17.7

AAAACC [RNAcompete motif RNCMPT00153]
binding signal (z-score (mean of top ten 7-mers)) [20]: 8.16

UUUUUU [RNAcompete motif RNCMPT00158]
binding signal (z-score (mean of top ten 7-mers)) [21]: 14.8

UUUUUU [RNAcompete motif RNCMPT00159]
binding signal (z-score (mean of top ten 7-mers)) [22]: 16.1

GAAAAA [RNAcompete motif RNCMPT00155]
binding signal (z-score (mean of top ten 7-mers)) [23]: 11.3
